According to paper PMC5458144 (2017):

Molecular target: CRL4A-CRBN (Homo sapiens, UniProt Q96SW2)
Experiment: TR-FRET

Chain of CRL4A-CRBN (Q96SW2 whole entry, chain 1 of 4): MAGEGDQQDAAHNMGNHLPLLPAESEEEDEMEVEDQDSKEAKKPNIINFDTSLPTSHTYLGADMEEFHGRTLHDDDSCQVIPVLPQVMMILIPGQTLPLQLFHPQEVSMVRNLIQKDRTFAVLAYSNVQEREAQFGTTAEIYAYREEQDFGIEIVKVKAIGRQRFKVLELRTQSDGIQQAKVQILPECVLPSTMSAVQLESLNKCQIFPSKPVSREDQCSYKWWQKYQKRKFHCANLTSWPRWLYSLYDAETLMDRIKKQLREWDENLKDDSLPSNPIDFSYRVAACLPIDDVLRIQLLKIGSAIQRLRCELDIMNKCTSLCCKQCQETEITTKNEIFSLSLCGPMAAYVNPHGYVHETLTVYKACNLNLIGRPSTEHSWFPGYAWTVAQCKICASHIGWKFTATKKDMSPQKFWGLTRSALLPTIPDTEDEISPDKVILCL
Chain of CRL4A-CRBN (Q16531 2-1140, chain 2 of 4, further chain): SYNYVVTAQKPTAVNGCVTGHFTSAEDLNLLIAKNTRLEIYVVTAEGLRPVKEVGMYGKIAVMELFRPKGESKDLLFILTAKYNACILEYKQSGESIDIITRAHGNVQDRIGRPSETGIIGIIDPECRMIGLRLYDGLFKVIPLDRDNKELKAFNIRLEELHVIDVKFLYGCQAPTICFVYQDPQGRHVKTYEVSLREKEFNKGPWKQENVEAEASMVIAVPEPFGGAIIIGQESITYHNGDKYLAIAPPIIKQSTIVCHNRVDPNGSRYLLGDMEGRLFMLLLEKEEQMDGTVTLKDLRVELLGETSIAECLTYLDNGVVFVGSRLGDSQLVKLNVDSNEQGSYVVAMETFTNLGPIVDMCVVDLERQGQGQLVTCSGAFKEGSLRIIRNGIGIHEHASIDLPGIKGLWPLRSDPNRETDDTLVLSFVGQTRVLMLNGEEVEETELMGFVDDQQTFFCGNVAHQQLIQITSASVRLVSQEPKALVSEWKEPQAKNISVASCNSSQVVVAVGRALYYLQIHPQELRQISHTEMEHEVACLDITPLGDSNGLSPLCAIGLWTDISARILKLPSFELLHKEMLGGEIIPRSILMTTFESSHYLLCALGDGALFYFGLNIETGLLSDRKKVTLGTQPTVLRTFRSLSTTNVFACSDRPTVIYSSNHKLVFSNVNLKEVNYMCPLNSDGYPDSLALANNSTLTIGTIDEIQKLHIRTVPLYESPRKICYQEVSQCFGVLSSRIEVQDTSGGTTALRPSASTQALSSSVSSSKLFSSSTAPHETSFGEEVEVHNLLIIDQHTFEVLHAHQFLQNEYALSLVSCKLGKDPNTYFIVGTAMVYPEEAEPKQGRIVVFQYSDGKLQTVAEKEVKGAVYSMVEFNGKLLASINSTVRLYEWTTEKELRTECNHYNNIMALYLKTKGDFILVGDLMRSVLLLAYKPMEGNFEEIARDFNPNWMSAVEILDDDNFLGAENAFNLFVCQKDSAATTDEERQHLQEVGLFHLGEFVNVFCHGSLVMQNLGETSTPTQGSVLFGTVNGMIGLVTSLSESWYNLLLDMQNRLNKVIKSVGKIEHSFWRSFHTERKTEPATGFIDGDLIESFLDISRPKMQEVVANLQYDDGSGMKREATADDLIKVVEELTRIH
Chain of CRL4A-CRBN (Q13619 whole entry, chain 3 of 4, further chain): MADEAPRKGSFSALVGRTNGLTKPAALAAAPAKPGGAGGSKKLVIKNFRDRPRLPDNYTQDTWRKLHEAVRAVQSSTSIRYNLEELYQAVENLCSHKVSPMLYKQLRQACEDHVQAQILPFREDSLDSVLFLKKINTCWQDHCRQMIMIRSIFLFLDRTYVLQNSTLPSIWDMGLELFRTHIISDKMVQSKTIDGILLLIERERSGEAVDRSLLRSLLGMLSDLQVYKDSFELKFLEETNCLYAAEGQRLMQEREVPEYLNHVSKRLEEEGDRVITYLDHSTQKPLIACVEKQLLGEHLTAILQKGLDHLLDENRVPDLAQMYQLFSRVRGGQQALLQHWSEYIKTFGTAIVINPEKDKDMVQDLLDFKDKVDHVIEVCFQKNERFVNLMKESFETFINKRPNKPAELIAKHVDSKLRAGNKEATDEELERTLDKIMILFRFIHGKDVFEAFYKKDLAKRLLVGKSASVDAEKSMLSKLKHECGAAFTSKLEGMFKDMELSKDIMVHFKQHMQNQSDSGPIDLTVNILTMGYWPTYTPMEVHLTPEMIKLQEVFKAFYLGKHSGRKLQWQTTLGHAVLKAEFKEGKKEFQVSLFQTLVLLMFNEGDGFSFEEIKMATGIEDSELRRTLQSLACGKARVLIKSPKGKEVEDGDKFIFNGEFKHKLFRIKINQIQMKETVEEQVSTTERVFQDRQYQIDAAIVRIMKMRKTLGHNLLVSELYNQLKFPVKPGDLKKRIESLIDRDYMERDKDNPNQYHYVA
Chain of CRL4A-CRBN (P62877 2-108, chain 4 of 4, further chain): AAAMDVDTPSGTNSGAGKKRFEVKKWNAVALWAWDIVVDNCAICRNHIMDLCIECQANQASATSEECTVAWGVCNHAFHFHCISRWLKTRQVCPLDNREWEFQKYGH

Kd: 0.107 µM
B1: ZFP91 (protein)
chain: PGETEEPRPPEQQDQEGGEAAKAAPEEPQQRPPEAVAAAPAGTTSSRVLRGGRDRGRAAAAAAAAAVSRRRKAEYPRRRRSSPSARPPDVPGQQPQAAKSPSPVQGKKSPRLLCIEKVTTDKDPKEEKEEEDDSALPQEVSIAASRPSRGWRSSRTSVSRHRDTENTRSSRSKTGSLQLICKSEPNTDQLDYDVGEEHQSPGGISSEEEEEEEEEMLISEEEIPFKDDPRDETYKPHLERETPKPRRKSGKVKEEKEKKEIKVEVEVEVKEEENEIREDEEPPRKRGRRRKDDKSPRLPKRRKKPPIQYVRCEMEGCGTVLAHPRYLQHHIKYQHLLKKKYVCPHPSCGRLFRLQKQLLRHAKHHTDQRDYICEYCARAFKSSHNLAVHRMIHTGEKPLQCEICGFTCRQKASLNWHMKKHDADSFYQFSCNICGKKFEKKDSVVAHKAKSHPEVLIAEALAANAGALITSTDILGTNPESLTQPSDGQGLPLLPEPLGNSTSGECLLLEAEGMSKSYCSGTERVSLMADGKIFVGSGSSGGTEGLVMNSDILGATTEVLIEDSDSAGP
modifications: lenalidomide
